Experimental data reported in US20250115669A1, “FGFR1/KLB Targeting Agonistic Antigen-Binding Proteins and Conjugates Thereof with GLP-1R Agonistic Peptides” (SANOFI, priority 2020, published 2025).
Changes are numbered by the printed parent chain. Names and notes keep the numbering of the source.

T1: human beta-Klotho (Homo sapiens, UniProt Q86Z14)
T1 sequence (Q86Z14 1-1044): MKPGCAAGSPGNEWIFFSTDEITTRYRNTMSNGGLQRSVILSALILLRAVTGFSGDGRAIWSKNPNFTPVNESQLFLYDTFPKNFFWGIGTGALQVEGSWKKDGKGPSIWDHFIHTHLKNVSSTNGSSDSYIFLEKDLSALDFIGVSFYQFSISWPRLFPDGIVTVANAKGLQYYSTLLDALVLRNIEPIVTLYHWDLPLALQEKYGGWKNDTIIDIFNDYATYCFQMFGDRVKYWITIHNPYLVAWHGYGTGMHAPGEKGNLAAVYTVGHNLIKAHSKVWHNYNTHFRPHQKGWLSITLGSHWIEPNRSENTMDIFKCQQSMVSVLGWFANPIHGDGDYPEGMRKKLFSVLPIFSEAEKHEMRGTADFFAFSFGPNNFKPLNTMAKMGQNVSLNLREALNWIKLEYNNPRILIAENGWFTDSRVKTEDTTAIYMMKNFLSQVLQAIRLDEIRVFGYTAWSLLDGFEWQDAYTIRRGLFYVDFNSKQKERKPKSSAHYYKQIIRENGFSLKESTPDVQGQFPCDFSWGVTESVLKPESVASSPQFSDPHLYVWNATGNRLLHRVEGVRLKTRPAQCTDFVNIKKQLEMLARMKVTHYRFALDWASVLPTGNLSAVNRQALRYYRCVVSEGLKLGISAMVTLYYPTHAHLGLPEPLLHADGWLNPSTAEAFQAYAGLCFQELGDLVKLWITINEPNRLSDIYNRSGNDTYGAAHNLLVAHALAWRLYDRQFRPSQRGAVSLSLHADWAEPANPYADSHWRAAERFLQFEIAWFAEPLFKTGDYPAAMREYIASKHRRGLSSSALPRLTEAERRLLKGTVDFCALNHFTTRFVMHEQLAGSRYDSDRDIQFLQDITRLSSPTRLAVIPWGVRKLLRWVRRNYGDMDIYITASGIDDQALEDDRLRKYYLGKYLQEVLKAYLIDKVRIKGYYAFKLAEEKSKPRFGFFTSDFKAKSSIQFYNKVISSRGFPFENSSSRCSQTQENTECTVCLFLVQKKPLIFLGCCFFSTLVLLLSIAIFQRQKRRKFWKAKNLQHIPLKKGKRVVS

B1: Ab0301: IgG4 PE; 16H7 VL (N25S, D49Y, D91T); 16H7 VH (M34V, I83T, D109E) (antibody)
VH: QVTLKESGPVLVKPTETLTLTCTVSGFSLNNARVGVSWIRQPPGKALEWLAHIFSNDEKSYSTSLKSRLTISKDTSKSQVVLTMTNMDPVDTATYYCARSVVTGGYYYEGMDVWGQGTTVTVSS
light: SYVLTQPPSVSVAPGQTARITCGGSNIGSESVHWYQQKPGQAPVLVVYYDSDRPSGIPERFSGSNSGNTATLTISRVEAGDEADYYCQVWTGNSDHVVFGGGTKLTVLGQPKANPTVTLFPPSSEELQANKATLVCLISDFYPGAVTVAWKADGSPVKAGVETTKPSKQSNNKYAASSYLSLTPEQWKSHRSYSCQVTHEGSTVEKTVAPTECS
B2: Ab0317: IgG4 PE; 16H7 VL (D50E, D91T, N93E); 16H7 VH (M34V, I83T, D109E) (antibody)
VH: B1 VH
light: B1 light with S25N, Y49D, D50E, N93E
B3: Ab0310: IgG4 PE; 16H7 VL (N25S, D50E, N93E); 16H7 VH (M34V, I83T, D109E) (antibody)
VH: B1 VH
light: B1 light with Y49D, D50E, T91D, N93E
B4: Ab0315: IgG4 PE; 16H7 VL (D49Y, D91T, N93E); 16H7 VH (M34V, I83T, D109E) (antibody)
VH: B1 VH
light: B1 light with S25N, N93E
B5: Ab0303: IgG4 PE; 16H7 VL (N25S, D50E, D91T); 16H7 VH (M34V, I83T, D109E) (antibody)
VH: B1 VH
light: B1 light with Y49D, D50E
B6: Ab0311: IgG4 PE; 16H7 VL (D49Y, D50E, N93E); 16H7 VH (M34V, I83T, D109E) (antibody)
VH: B1 VH
light: B1 light with S25N, D50E, T91D, N93E
B7: Ab0305: IgG4 PE; 16H7 VL (N25S, D49Y, D50E, D91T); 16H7 VH (M34V, I83T, D109E) (antibody)
VH: B1 VH
light: B1 light with D50E
B8: Ab0365: IgG4 PE; 16H7 VL (N25A, D49T, D50E, D91A, N93S); 16H7 VH (M34V, I83T, D109E) (antibody)
VH: B1 VH
light: B1 light with S25A, Y49T, D50E, T91A, N93S
B9: Ab0304: IgG4 PE; 16H7 VL (D49Y, D50E, D91T); 16H7 VH (M34V, I83T, D109E) (antibody)
VH: B1 VH
light: B1 light with S25N, D50E
B10: Ab0308: IgG4 PE; 16H7 VL (N25S, D49Y, N93E); 16H7 VH (M34V, I83T, D109E) (antibody)
VH: B1 VH
light: B1 light with T91D, N93E
B11: Ab0316: IgG4 PE; 16H7 VL (N25S, D49Y, D91T, N93E); 16H7 VH (M34V, I83T, D109E) (antibody)
VH: B1 VH
light: B1 light with N93E

Molecular target: T1, human beta-Klotho
Test: SPR off-rate screening of antibody mutants (human beta-Klotho captured by anti-His antibody)
Format: binding
Settings: mean, n=3
Procedure, shortened: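 His-tagged beta-Klotho was captured via an anti-His antibody amine-coupled to a CM5 chip, and antibody mutants were injected as analytes at 50 nmol/L. Association ran 240 sec, dissociation 300 sec; off-rates (kd) came from single exponential fitting.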

| koff human KLB | Molecule |
| --- | --- |
| invalid fit | B1 |
| invalid fit | B2 |
| 0.00116 s⁻¹ | B3 |
| invalid fit | B4 |
| invalid fit | B5 |
| 0.0013 s⁻¹ | B6 |
| invalid fit | B7 |
| invalid fit | B8 |
| invalid fit | B9 |
| 0.0013 s⁻¹ | B10 |
| invalid fit | B11 |
